{
  "source": "patent US10005838B2",
  "about": "“Milk fat globule epidermal growth factor 8 regulates fatty acid uptake” (REGENTS OF THE UNIVERSITY OF CALIFORNIA, priority 2013, dated 2018)",
  "molecules": {"B1": {"name": "SEQ ID NO:4: mouse Mfge8 sequence lacking the second discoidan domain but including all other native sequence (protein)", "chain": "MQVSRVLAALCGMLLCASGLFAASGDFCDSSLCLNGGTCLTGQDNDIYCLCPEGFTGLVCNETERGPCSPNPCYNDAKCLVTLDTQRGDIFTEYICQCPVGYSGIHCETETNYYNLDGEYMFTTAVPNTAVPTPAPTPDLSNNLASRCSTQLGMEGGAIADSQISASSVYMGFMGLQRWGPELARLYRTGIVNAWTASNYDSKPWIQVNLLRKMRVSGVMTQGASRAGRAEYLKTFKVAYSLDGRKFEFIQDESGGDKEFLGNLDNNSLKVNMFNPTLEAQYIKLYPVSCHRGCTLRFELLGCKPFMARYVRVLPVSWHNRITLRLELLGC", "modifications": "synthetic E1E2D1 mouse milk fat globule epidermal growth factor 8 (Mfge8) long construct (lacking second discoidin domain)"}},
  "test": "Activity of Mfge8 sequence lacking the second discoidin domain (test not named at the place)",
  "settings": "mouse Mfge8 lacking the second discoidin domain",
  "data": [
    {"molecule": "B1", "values": [
      {"measurement": "activity of the Mfge8 fragment", "result": "remains active"}
    ]}
  ]
}
